According to PMC6413200:

Target: pGE-LysRS-6xhis-SPARC fusion protein (not stated | Clonorchis sinensis)
Assay: SEC; Ni-affinity fractions on a Superdex 200 Increase 10/300 GL or a Superose 6 Increase 10/300 column; 50 mM Tris-Cl (pH 7.5), 300 mM NaCl; 0.3 mL/min; molecular weight estimated from elution; samples from sonication and from mild lysis

Substance: pGE-LysRS-6xhis-SPARC fusion protein
- stoichiometry N: 2
